For one molecule, Kd results are on record in paper PMC4540666.

Assay [1] addresses PLCγ1 SH2C-linker (rat) (UniProt P10686). The assay can be described thus: other fluorescence titration.
The target in assay [2] is PLCγ1 SH2C domain (C-terminal SH2 domain of PLCγ1) (rat) (UniProt P10686). The assay can be described thus: other fluorescence titration.

[ ]: non-standard residue; d: D form. pY = N[C@@H](Cc1ccc(OP(=O)(O)O)cc1)C(=O)O

B1: SLP-76 pY173 peptide (Ac-NSMpY173IDRPPTGK-NH2) (peptide)
peptide: Ac-NSM[pY]IDRPPTGK-NH2
SMILES: CC[C@H](C)[C@H](NC(=O)[C@H](Cc1ccc(OP(=O)(O)O)cc1)NC(=O)[C@H](CCSC)NC(=O)[C@H](CO)NC(=O)[C@H](CC(N)=O)NC(C)=O)C(=O)N[C@@H](CC(=O)O)C(=O)N[C@@H](CCCNC(=N)N)C(=O)N1CCC[C@H]1C(=O)N1CCC[C@H]1C(=O)N[C@H](C(=O)NCC(=O)N[C@@H](CCCCN)C(N)=O)[C@@H](C)O
Turning to B1, the Kd is 2900 nM in assay [1] and 1600 nM in assay [2].

By Kd is commonly meant the constant that tells how readily two partners part at equilibrium. A lower Kd goes with higher affinity.
